Kd data for four molecules are collected here from paper PMC9917023 (2023).

As a reminder, the Kd is a measure of binding affinity in units of concentration. Read a high Kd as a looser complex.

Non-standard residues stand in square brackets, D forms with d. No end group written: not given here.

In assay [1] the target is T1, full-length tau 441 (Homo sapiens, UniProt P10636). The assay can be described thus: SPR. A general note: Surface plasmon resonance follows binding to a sensor surface in real time, without labels.
T1 sequence (P10636 2-758): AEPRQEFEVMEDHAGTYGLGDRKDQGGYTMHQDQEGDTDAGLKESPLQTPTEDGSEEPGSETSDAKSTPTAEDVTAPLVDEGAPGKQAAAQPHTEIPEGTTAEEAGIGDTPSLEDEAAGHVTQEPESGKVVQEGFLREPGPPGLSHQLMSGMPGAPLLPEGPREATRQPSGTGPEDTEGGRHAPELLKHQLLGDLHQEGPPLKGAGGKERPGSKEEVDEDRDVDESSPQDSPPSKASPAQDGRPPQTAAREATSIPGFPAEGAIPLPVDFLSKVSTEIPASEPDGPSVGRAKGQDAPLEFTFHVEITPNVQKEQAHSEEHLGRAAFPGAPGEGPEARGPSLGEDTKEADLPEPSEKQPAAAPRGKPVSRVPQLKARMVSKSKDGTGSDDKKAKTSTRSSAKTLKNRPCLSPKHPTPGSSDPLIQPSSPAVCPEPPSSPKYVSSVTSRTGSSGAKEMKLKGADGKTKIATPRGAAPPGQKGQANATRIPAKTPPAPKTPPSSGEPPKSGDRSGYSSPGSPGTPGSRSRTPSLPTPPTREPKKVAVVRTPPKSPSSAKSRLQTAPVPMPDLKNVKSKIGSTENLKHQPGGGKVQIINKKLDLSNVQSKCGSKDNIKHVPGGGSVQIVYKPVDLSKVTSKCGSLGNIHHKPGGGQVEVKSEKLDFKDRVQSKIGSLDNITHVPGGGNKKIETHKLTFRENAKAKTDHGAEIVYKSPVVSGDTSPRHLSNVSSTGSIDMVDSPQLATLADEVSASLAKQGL
For the next assay, the target named is T2, tau R3 domain 304-336 (Homo sapiens, UniProt P10636).
T2 chain: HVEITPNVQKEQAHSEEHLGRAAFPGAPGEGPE
Put plainly: SPR.

For assay [2], the target named is T1, full-length tau 441. The assay can be described thus: MST.

B1: TF2D-5a (peptide)
chain: [dD]GG[dY][dQ][dI][dL][dF][dK][dI][dP]GG[dH][dI][dH][dR][dR][dR][dR][dR]-NH2
modifications: N-terminus assumed
SMILES: CC[C@@H](C)[C@@H](NC(=O)[C@@H](Cc1c[nH]cn1)NC(=O)CNC(=O)CNC(=O)[C@H]1CCCN1C(=O)[C@H](NC(=O)[C@@H](CCCCN)NC(=O)[C@@H](Cc1ccccc1)NC(=O)[C@@H](CC(C)C)NC(=O)[C@H](NC(=O)[C@@H](CCC(N)=O)NC(=O)[C@@H](Cc1ccc(O)cc1)NC(=O)CNC(=O)CNC(=O)[C@H](N)CC(=O)O)[C@H](C)CC)[C@H](C)CC)C(=O)N[C@H](Cc1c[nH]cn1)C(=O)N[C@H](CCCNC(=N)N)C(=O)N[C@H](CCCNC(=N)N)C(=O)N[C@H](CCCNC(=N)N)C(=O)N[C@H](CCCNC(=N)N)C(=O)N[C@H](CCCNC(=N)N)C(N)=O
For B1, the Kd with full-length tau 441 [1] is 6.1 nM; in the assay with tau R3 domain 304-336 it was 0.007 nM.

B2: TF2D-5 (peptide)
chain: [dD]GG[dY][dQ][dI][dL][dF][dK][dI][dP]GG[dH][dI][dH]-NH2
modifications: N-terminus assumed
SMILES: CC[C@@H](C)[C@@H](NC(=O)[C@@H](Cc1c[nH]cn1)NC(=O)CNC(=O)CNC(=O)[C@H]1CCCN1C(=O)[C@H](NC(=O)[C@@H](CCCCN)NC(=O)[C@@H](Cc1ccccc1)NC(=O)[C@@H](CC(C)C)NC(=O)[C@H](NC(=O)[C@@H](CCC(N)=O)NC(=O)[C@@H](Cc1ccc(O)cc1)NC(=O)CNC(=O)CNC(=O)[C@H](N)CC(=O)O)[C@H](C)CC)[C@H](C)CC)C(=O)N[C@H](Cc1c[nH]cn1)C(N)=O
Molecule B2 came in with a Kd in the assay with full-length tau 441 [1] of 1.3 nM. In the assay with full-length tau 441 [2], [dD]GG[dY][dQ][dI][dL][dF][dK][dI][dP]GG[dH][dI][dH][dR][dR][dR][dR][dR]-NH2 (also: CF633 label, position not given here) had a Kd of 11.7 nM. In the assay with full-length tau 441 [2], [dD]GG[dY][dQ][dI][dL][dF][dK][dI][dP]GG[dH][dI][dH]-NH2 (also: CF633 label, position not given here) had a Kd of 0.308 nM.
